Measured values: patent US20160108105A1

Molecular target: FcγRI (UniProt P12314)
Experiment: ELISA, coated protein, soluble FcγRI 2 µg/ml

Chain of UniProt P12314 (P12314 16-288 limits assumed): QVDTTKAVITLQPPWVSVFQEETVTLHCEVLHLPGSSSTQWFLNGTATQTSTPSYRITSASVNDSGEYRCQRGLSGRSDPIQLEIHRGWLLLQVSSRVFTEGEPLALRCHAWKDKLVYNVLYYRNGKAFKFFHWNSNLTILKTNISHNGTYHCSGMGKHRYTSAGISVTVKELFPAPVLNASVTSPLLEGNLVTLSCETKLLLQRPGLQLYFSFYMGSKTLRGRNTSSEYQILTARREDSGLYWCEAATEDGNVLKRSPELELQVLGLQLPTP

FcγRI binding ability relative to hGH-IgG4Fc-wt (fold of hGH-IgG4Fc-wt): 0.5
Substance: hGH-chimeric IgG4 variant: 4 amino acids at the N-terminus of IgG4 Fc CH2 domain replaced with 2 amino acids of IgD CH2 domain (Fc fusion)
